These results are taken from the supplement of paper PMC10567573.

The labels stand for the following.
B1: C1orf137 (parent)
chain: RQHHHQSSFPGSLPQETNLTLKVC
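Also: lentivirally expressed fusions sorted by FACS into six bins by GFP to DsRed ratio, PSI derived from sequencing read proportions per bin multiplied by bin number.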

Variants of B1 are the subject of the data set. As to the kind of experiment: protein stability index of a GFP-peptide fusion (GPS, HEK-293T) (PSI 1-6); higher = more stable. The settings on record: c terminus: a fixed tail appended.
Regarding RQIHHQSSFPGSLPQETNLTLKVC [H3I], the protein stability index was determined as 3.06.
RQAHHQSSFPGSLPQETNLTLKVC [H3A]: the protein stability index was found to be 2.84.
Take WQHHHQSSFPGSLPQETNLTLKVC [R1W]: the protein stability index worked out at 3.5.
In the case of MQHHHQSSFPGSLPQETNLTLKVC [R1M], the protein stability index worked out at 2.87.
Under EQHHHQSSFPGSLPQETNLTLKVC [R1E] stands 3.58; under IQHHHQSSFPGSLPQETNLTLKVC [R1I], 3.28.
Under KQHHHQSSFPGSLPQETNLTLKVC [R1K] stands 2.88; under RQHQHQSSFPGSLPQETNLTLKVC [H4Q], 3.9.
Under RQHFHQSSFPGSLPQETNLTLKVC [H4F] stands 2.74; under RQHHHISSFPGSLPQETNLTLKVC [Q6I], 2.37.
Turning to RQHHHLSSFPGSLPQETNLTLKVC [Q6L], the protein stability index stood at 2.49.
Turning to RQHHHHSSFPGSLPQETNLTLKVC [Q6H], the protein stability index worked out at 3.36.
With RQHHHQSSFPGSLPQETELTLKVC [N18E] the figure was 2.77.
For RQHHHQSSFPGSLPQETKLTLKVC [N18K], the protein stability index came out at 2.89.
With RQHHHQSSFPGSLPQETTLTLKVC [N18T] the figure was 2; with RQHHHQSSFPGSIPQETNLTLKVC [L13I], 3.2.
In the case of RQHHHQSSFPGSCPQETNLTLKVC [L13C], the protein stability index turned out to be 2.79.
Regarding RQHHHQSSFPGSRPQETNLTLKVC [L13R], the protein stability index stood at 2.97.
With RQHHHQSSFPGSDPQETNLTLKVC [L13D] the figure was 4; with RQHHHQSSFPGSSPQETNLTLKVC [L13S], 3.57.
With RQHHHQSSFPGSMPQETNLTLKVC [L13M] the figure was 3.29; with RQHHHQSSFPGSTPQETNLTLKVC [L13T], 3.51; with RQHHHQSSLPGSLPQETNLTLKVC [F9L], 3.53.
As for RQHHHQSSNPGSLPQETNLTLKVC [F9N], the protein stability index was 3.88.
With RQHHHQSSFPGPLPQETNLTLKVC [S12P] the figure was 2.82; with RQHHHQSSFPGALPQETNLTLKVC [S12A], 3.19.
On to RQHHHQSSFPGLLPQETNLTLKVC [S12L], for which the protein stability index worked out at 2.66.
With RQHHHQSSFPGILPQETNLTLKVC [S12I] the figure was 2.41; with RQHHHQSSFPGTLPQETNLTLKVC [S12T], 2.99; with RQHHHQSSFPGSLPQETNMTLKVC [L19M], 3.16.
Consider RQHHHQSSFPGSLPQETNQTLKVC [L19Q], for which the protein stability index was 3.52.
With RQHHHQSSFPGSLPQETNKTLKVC [L19K] the figure was 3.99; with RQHHHQSSFPGSLPQETNDTLKVC [L19D], 4.63.
As to RQHHHQSSFPGSLPQETNLTSKVC [L21S], the protein stability index was determined as 4.02.
With RQHHHQSSFPGSLPQETNLTFKVC [L21F] the figure was 2.88; with RQHHHQSSFPGSLPQETNLTRKVC [L21R], 3.95.
On to RQHHHQSSFPGSLPQETNLTYKVC [L21Y], for which the protein stability index worked out at 3.96.
With RQHHHQSSFPGSLPQETNLTQKVC [L21Q] the figure was 3.95; with RQHHHQSSFPGSLPQETNLTCKVC [L21C], 3.97; with RQHHHQSSFPGSLPQETNLTAKVC [L21A], 4.
In the case of RQHHFQSSFPGSLPQETNLTLKVC [H5F], the protein stability index is 2.33.
In the case of RQHHIQSSFPGSLPQETNLTLKVC [H5I], the protein stability index is 2.66.
On to RQHHYQSSFPGSLPQETNLTLKVC [H5Y], for which the protein stability index came to 2.85.
For the variant RQHHEQSSFPGSLPQETNLTLKVC [H5E], the protein stability index was 3.97.
Turning to RQHHAQSSFPGSLPQETNLTLKVC [H5A], the protein stability index amounted to 3.06.
In the case of RQHHMQSSFPGSLPQETNLTLKVC [H5M], the protein stability index amounted to 2.63.
With RQHHWQSSFPGSLPQETNLTLKVC [H5W], the protein stability index was found to be 2.27.
On to RQHHQQSSFPGSLPQETNLTLKVC [H5Q], for which the protein stability index amounted to 2.65.
In the case of RQHHHQSSFPTSLPQETNLTLKVC [G11T], the protein stability index was 2.66.
On to RQHHHQSSFPDSLPQETNLTLKVC [G11D], for which the protein stability index stood at 2.25.
With RQHHHQSSFPKSLPQETNLTLKVC [G11K] the figure was 3.79; with RQHHHQSSFPNSLPQETNLTLKVC [G11N], 3.01; with RQHHHQSSFPGSLPKETNLTLKVC [Q15K], 2.46.
With RQHHHQSSFPGSLPHETNLTLKVC [Q15H] the figure was 2.51; with RQHHHQSSFPGSLPMETNLTLKVC [Q15M], 2.29; with RQHHHQSSFPGSLPAETNLTLKVC [Q15A], 2.03.
For RQHHHQSSFPGSLPQELNLTLKVC [T17L], the protein stability index is 1.57.
Under RQHHHQSSFPGSLPQEENLTLKVC [T17E] stands 3.95.
With RQHHHQSSFPGSLPQEKNLTLKVC [T17K] the figure was 3.54; with RQHHHQSSFPGSLPQEQNLTLKVC [T17Q], 3.24.
Under RQHHHQCSFPGSLPQETNLTLKVC [S7C] stands 2.43.
RQHHHQESFPGSLPQETNLTLKVC [S7E]: the protein stability index was 2.3.
For the variant RQHHHQFSFPGSLPQETNLTLKVC [S7F], the protein stability index was 2.36.
As to RQHHHQDSFPGSLPQETNLTLKVC [S7D], the protein stability index came out at 3.23.
Under RQHHHQSSFPGSLPQETNLQLKVC [T20Q] stands 3.83.
With RQHHHQSIFPGSLPQETNLTLKVC [S8I] the figure was 3.03; with RQHHHQSMFPGSLPQETNLTLKVC [S8M], 2.68; with RQHHHQSQFPGSLPQETNLTLKVC [S8Q], 2.9.
With RQHHHQSLFPGSLPQETNLTLKVC [S8L] the figure was 2.45.
Regarding RQHHHQSSFKGSLPQETNLTLKVC [P10K], the protein stability index worked out at 3.44.
In the case of RQHHHQSSFLGSLPQETNLTLKVC [P10L], the protein stability index is 2.25.
RQHHHQSSFVGSLPQETNLTLKVC [P10V]: the protein stability index came to 2.65.
Regarding RQHHHQSSFQGSLPQETNLTLKVC [P10Q], the protein stability index is 3.06.
With RQHHHQSSFPGSLPQETNLTLKVR [C24R] the figure was 4.68; with RQHHHQSSFPGSLPQETNLTLKVK [C24K], 4.11; with RQHHHQSSFPGSLPQETNLTLKVH [C24H], 3.37.
Under RQHHHQSSFPGSLDQETNLTLKVC [P14D] stands 3.55; under RQHHHQSSFPGSLIQETNLTLKVC [P14I], 2.24.
For the variant RQHHHQSSFPGSLGQETNLTLKVC [P14G], the protein stability index was determined as 3.18.
With RQHHHQSSFPGSLLQETNLTLKVC [P14L] the figure was 2.29.
RQHHHQSSFPGSLPQHTNLTLKVC [E16H]: the protein stability index was 2.87.
In the case of RQHHHQSSFPGSLPQRTNLTLKVC [E16R], the protein stability index was 2.34.
Under RQHHHQSSFPGSLPQMTNLTLKVC [E16M] stands 2.48; under RQHHHQSSFPGSLPQETNLTLKFC [V23F], 2.5; under RQHHHQSSFPGSLPQETNLTLKKC [V23K], 2.97.
As to RQHHHQSSFPGSLPQETNLTLKNC [V23N], the protein stability index turned out to be 3.34.
RQHHHQSSFPGSLPQETNLTLSVC [K22S]: the protein stability index came out at 3.34.
As for RQHHHQSSFPGSLPQETNLTLDVC [K22D], the protein stability index was found to be 3.5.
Turning to RGHHHQSSFPGSLPQETNLTLKVC [Q2G], the protein stability index came to 3.57.
RMHHHQSSFPGSLPQETNLTLKVC [Q2M]: the protein stability index came out at 2.88.
With RWHHHQSSFPGSLPQETNLTLKVC [Q2W] the figure was 2.58; with RYHHHQSSFPGSLPQETNLTLKVC [Q2Y], 2.63.
On to RLHHHQSSFPGSLPQETNLTLKVC [Q2L], for which the protein stability index is 2.4.
Under RKHHHQSSFPGSLPQETNLTLKVC [Q2K] stands 2.31.
